Test system: Escherichia coli TOP10
Assay: shrunken log2 fold change of peptide-encoding DNA abundance (4.5 h post-induction vs induction); higher = less antimicrobial activity (less host growth inhibition)
Conditions: time post-induction: 4.5 h; library: site-saturation at positions 5, 18, 19, 20
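Further: peptides expressed intracellularly from a pBAD plasmid library in pooled LB shake-flask culture, induced with 0.3% L-arabinose, DNA abundance read by NGS, three biological replicates, DESeq2 with apeglm shrinkage.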

With RRIRTRPPRLPRPRPRPVHMPRP the “shrunken log2 fold change” value was -0.123.

RRIRARPPRLPRPRPRPMARPRP was tested, and the “shrunken log2 fold change” value was -0.132.

RRIRNRPPRLPRPRPRPCQIPRP was tested, and the “shrunken log2 fold change” value was -0.0177.

RRIRLRPPRLPRPRPRPDGAPRP was tested, and the “shrunken log2 fold change” value was 0.0651.

For RRIRVRPPRLPRPRPRPMCIPRP, the “shrunken log2 fold change” value was -0.047.

In the case of RRIRFRPPRLPRPRPRPNAQPRP, the “shrunken log2 fold change” value is reported as 0.0328.

In the case of RRIRIRPPRLPRPRPRPWRAPRP, the “shrunken log2 fold change” value is reported as 0.0578.

RRIRDRPPRLPRPRPRPKCLPRP was tested, and the “shrunken log2 fold change” value was 0.313.

In the case of RRIRERPPRLPRPRPRPCIRPRP, the “shrunken log2 fold change” value is reported as -0.152.

With RRIRQRPPRLPRPRPRPVALPRP the “shrunken log2 fold change” value was -0.0318.

For RRIRLRPPRLPRPRPRPVMHPRP, the “shrunken log2 fold change” value was -0.16.

For RRIRVRPPRLPRPRPRPQECPRP, the “shrunken log2 fold change” value was -0.00813.

RRIRARPPRLPRPRPRPHLDPRP was tested, and the “shrunken log2 fold change” value was 0.324.

RRIRWRPPRLPRPRPRPAMYPRP was tested, and the “shrunken log2 fold change” value was -0.112.

With RRIRDRPPRLPRPRPRPYLLPRP the “shrunken log2 fold change” value was -0.179.

In the case of RRIRFRPPRLPRPRPRPSEAPRP, the “shrunken log2 fold change” value is reported as -0.0845.

For RRIRPRPPRLPRPRPRPAQQPRP, the “shrunken log2 fold change” value was 0.263.

RRIRQRPPRLPRPRPRPMYTPRP was tested, and the “shrunken log2 fold change” value was -0.639.

For RRIRPRPPRLPRPRPRPGGLPRP, the “shrunken log2 fold change” value was 0.131.

For RRIRERPPRLPRPRPRPVFIPRP, the “shrunken log2 fold change” value was -0.281.

For RRIRYRPPRLPRPRPRPIYVPRP, the “shrunken log2 fold change” value was -1.88.

RRIRNRPPRLPRPRPRPYCQPRP was tested, and the “shrunken log2 fold change” value was -0.358.

In the case of RRIRMRPPRLPRPRPRPILLPRP, the “shrunken log2 fold change” value is reported as -0.0378.

For RRIRDRPPRLPRPRPRPVSQPRP, the “shrunken log2 fold change” value was -0.0185.

With RRIRTRPPRLPRPRPRPFYEPRP the “shrunken log2 fold change” value was -0.518.

RRIRCRPPRLPRPRPRPLGFPRP was tested, and the “shrunken log2 fold change” value was -0.116.

In the case of RRIRWRPPRLPRPRPRPPMTPRP, the “shrunken log2 fold change” value is reported as 0.257.

In the case of RRIRVRPPRLPRPRPRPWTKPRP, the “shrunken log2 fold change” value is reported as -0.106.

For RRIRQRPPRLPRPRPRPNAKPRP, the “shrunken log2 fold change” value was -0.0176.

In the case of RRIRIRPPRLPRPRPRPNMYPRP, the “shrunken log2 fold change” value is reported as -0.59.

With RRIRKRPPRLPRPRPRPAMIPRP the “shrunken log2 fold change” value was 0.909.

RRIRTRPPRLPRPRPRPTWVPRP was tested, and the “shrunken log2 fold change” value was 0.149.

For RRIRNRPPRLPRPRPRPVSRPRP, the “shrunken log2 fold change” value was -0.152.

In the case of RRIRNRPPRLPRPRPRPGYKPRP, the “shrunken log2 fold change” value is reported as 0.0376.

With RRIRWRPPRLPRPRPRPGCAPRP the “shrunken log2 fold change” value was 0.948.

For RRIRTRPPRLPRPRPRPIWLPRP, the “shrunken log2 fold change” value was -0.201.

For RRIRMRPPRLPRPRPRPWYPPRP, the “shrunken log2 fold change” value was -0.786.

RRIRARPPRLPRPRPRPDFTPRP was tested, and the “shrunken log2 fold change” value was -0.0266.

In the case of RRIRSRPPRLPRPRPRPFNAPRP, the “shrunken log2 fold change” value is reported as -0.459.

RRIRGRPPRLPRPRPRPPMSPRP was tested, and the “shrunken log2 fold change” value was 0.565.

For RRIRMRPPRLPRPRPRPTHWPRP, the “shrunken log2 fold change” value was 0.864.

With RRIRLRPPRLPRPRPRPCTMPRP the “shrunken log2 fold change” value was -0.152.

RRIRQRPPRLPRPRPRPCMPPRP was tested, and the “shrunken log2 fold change” value was -0.27.

With RRIRKRPPRLPRPRPRPPFYPRP the “shrunken log2 fold change” value was 0.229.

For RRIRDRPPRLPRPRPRPHSPPRP, the “shrunken log2 fold change” value was -0.264.

With RRIRVRPPRLPRPRPRPRPYPRP the “shrunken log2 fold change” value was 0.179.

For RRIRDRPPRLPRPRPRPNKSPRP, the “shrunken log2 fold change” value was -0.534.

With RRIRTRPPRLPRPRPRPNESPRP the “shrunken log2 fold change” value was -0.379.

For RRIRSRPPRLPRPRPRPCYQPRP, the “shrunken log2 fold change” value was 0.0321.

In the case of RRIRVRPPRLPRPRPRPWVNPRP, the “shrunken log2 fold change” value is reported as 0.0119.

With RRIRGRPPRLPRPRPRPLNGPRP the “shrunken log2 fold change” value was 0.11.

In the case of RRIRYRPPRLPRPRPRPTHQPRP, the “shrunken log2 fold change” value is reported as -0.161.

With RRIRSRPPRLPRPRPRPRMPPRP the “shrunken log2 fold change” value was 0.0543.

RRIRLRPPRLPRPRPRPFKCPRP was tested, and the “shrunken log2 fold change” value was 2.83.

RRIRNRPPRLPRPRPRPKYYPRP was tested, and the “shrunken log2 fold change” value was -0.887.

RRIRWRPPRLPRPRPRPWVQPRP was tested, and the “shrunken log2 fold change” value was 0.128.

In the case of RRIRKRPPRLPRPRPRPGKYPRP, the “shrunken log2 fold change” value is reported as 0.0356.

RRIRKRPPRLPRPRPRPIIMPRP was tested, and the “shrunken log2 fold change” value was -0.419.

RRIRPRPPRLPRPRPRPFDPPRP was tested, and the “shrunken log2 fold change” value was -0.0325.

In the case of RRIRRRPPRLPRPRPRPQLVPRP, the “shrunken log2 fold change” value is reported as 0.0448.

With RRIRMRPPRLPRPRPRPAVNPRP the “shrunken log2 fold change” value was 0.0731.

In the case of RRIRKRPPRLPRPRPRPSFSPRP, the “shrunken log2 fold change” value is reported as -0.0191.

RRIRTRPPRLPRPRPRPHAKPRP was tested, and the “shrunken log2 fold change” value was 0.0187.

For RRIRTRPPRLPRPRPRPGQEPRP, the “shrunken log2 fold change” value was -0.184.

For RRIRKRPPRLPRPRPRPNIEPRP, the “shrunken log2 fold change” value was 0.115.

RRIRQRPPRLPRPRPRPTWEPRP was tested, and the “shrunken log2 fold change” value was 0.0645.

With RRIRKRPPRLPRPRPRPVARPRP the “shrunken log2 fold change” value was 0.397.

RRIRGRPPRLPRPRPRPATLPRP was tested, and the “shrunken log2 fold change” value was 0.393.

For RRIRARPPRLPRPRPRPQPCPRP, the “shrunken log2 fold change” value was 0.276.

RRIRPRPPRLPRPRPRPYMSPRP was tested, and the “shrunken log2 fold change” value was -0.636.

For RRIRKRPPRLPRPRPRPLHHPRP, the “shrunken log2 fold change” value was 0.141.

With RRIRQRPPRLPRPRPRPMKNPRP the “shrunken log2 fold change” value was -0.124.

For RRIRERPPRLPRPRPRPEPDPRP, the “shrunken log2 fold change” value was 0.0002.

With RRIRDRPPRLPRPRPRPIIVPRP the “shrunken log2 fold change” value was 0.0216.

In the case of RRIRPRPPRLPRPRPRPTQPPRP, the “shrunken log2 fold change” value is reported as 0.402.

RRIRARPPRLPRPRPRPSMMPRP was tested, and the “shrunken log2 fold change” value was 0.162.

RRIRGRPPRLPRPRPRPGVSPRP was tested, and the “shrunken log2 fold change” value was 0.889.

In the case of RRIRSRPPRLPRPRPRPQIWPRP, the “shrunken log2 fold change” value is reported as -0.167.

With RRIRKRPPRLPRPRPRPANYPRP the “shrunken log2 fold change” value was 0.0421.

For RRIRVRPPRLPRPRPRPYRLPRP, the “shrunken log2 fold change” value was 0.0399.

With RRIRDRPPRLPRPRPRPEFFPRP the “shrunken log2 fold change” value was 0.896.

In the case of RRIRARPPRLPRPRPRPMWYPRP, the “shrunken log2 fold change” value is reported as -0.0479.

For RRIRFRPPRLPRPRPRPNGPPRP, the “shrunken log2 fold change” value was -0.0934.

In the case of RRIRYRPPRLPRPRPRPDKNPRP, the “shrunken log2 fold change” value is reported as -0.558.

In the case of RRIRSRPPRLPRPRPRPIADPRP, the “shrunken log2 fold change” value is reported as 0.191.

For RRIRWRPPRLPRPRPRPPVFPRP, the “shrunken log2 fold change” value was 0.384.

With RRIRARPPRLPRPRPRPQICPRP the “shrunken log2 fold change” value was 0.176.

In the case of RRIRCRPPRLPRPRPRPASHPRP, the “shrunken log2 fold change” value is reported as -0.241.

RRIRARPPRLPRPRPRPTIIPRP was tested, and the “shrunken log2 fold change” value was -0.0837.

With RRIRDRPPRLPRPRPRPFWFPRP the “shrunken log2 fold change” value was 0.0429.

With RRIRYRPPRLPRPRPRPGAKPRP the “shrunken log2 fold change” value was 0.379.

In the case of RRIRNRPPRLPRPRPRPHLYPRP, the “shrunken log2 fold change” value is reported as -0.22.

RRIRLRPPRLPRPRPRPMNKPRP was tested, and the “shrunken log2 fold change” value was -0.504.

RRIRMRPPRLPRPRPRPSARPRP was tested, and the “shrunken log2 fold change” value was 1.07.

In the case of RRIRTRPPRLPRPRPRPKNPPRP, the “shrunken log2 fold change” value is reported as -0.0748.

RRIRLRPPRLPRPRPRPLMGPRP was tested, and the “shrunken log2 fold change” value was -0.0491.

In the case of RRIRPRPPRLPRPRPRPEGTPRP, the “shrunken log2 fold change” value is reported as 0.0836.

RRIRVRPPRLPRPRPRPEQYPRP was tested, and the “shrunken log2 fold change” value was -0.394.

For RRIRERPPRLPRPRPRPAFWPRP, the “shrunken log2 fold change” value was 0.632.

RRIRPRPPRLPRPRPRPVIEPRP was tested, and the “shrunken log2 fold change” value was -0.0347.

RRIRWRPPRLPRPRPRPSSNPRP was tested, and the “shrunken log2 fold change” value was -0.0759.

With RRIRKRPPRLPRPRPRPERFPRP the “shrunken log2 fold change” value was -0.0391.

For RRIRCRPPRLPRPRPRPSNMPRP, the “shrunken log2 fold change” value was -0.604.

With RRIRIRPPRLPRPRPRPKKGPRP the “shrunken log2 fold change” value was -0.252.

In the case of RRIRVRPPRLPRPRPRPFSTPRP, the “shrunken log2 fold change” value is reported as -0.496.

RRIRYRPPRLPRPRPRPQYIPRP was tested, and the “shrunken log2 fold change” value was 0.0111.

For RRIRSRPPRLPRPRPRPKNNPRP, the “shrunken log2 fold change” value was -0.273.

For RRIRDRPPRLPRPRPRPNPEPRP, the “shrunken log2 fold change” value was 0.0935.

RRIRDRPPRLPRPRPRPMGCPRP was tested, and the “shrunken log2 fold change” value was -0.000921.

For RRIRLRPPRLPRPRPRPPELPRP, the “shrunken log2 fold change” value was 0.389.

In the case of RRIRTRPPRLPRPRPRPIYQPRP, the “shrunken log2 fold change” value is reported as -0.364.

With RRIRGRPPRLPRPRPRPENTPRP the “shrunken log2 fold change” value was 0.841.

RRIRPRPPRLPRPRPRPPTQPRP was tested, and the “shrunken log2 fold change” value was 0.12.

For RRIRNRPPRLPRPRPRPQSYPRP, the “shrunken log2 fold change” value was 0.0549.

For RRIRDRPPRLPRPRPRPLLDPRP, the “shrunken log2 fold change” value was 0.17.

For RRIRERPPRLPRPRPRPRVMPRP, the “shrunken log2 fold change” value was -0.244.

With RRIRNRPPRLPRPRPRPRNQPRP the “shrunken log2 fold change” value was -0.182.

In the case of RRIRNRPPRLPRPRPRPICQPRP, the “shrunken log2 fold change” value is reported as -0.0999.

For RRIRGRPPRLPRPRPRPNLTPRP, the “shrunken log2 fold change” value was 0.374.

With RRIRIRPPRLPRPRPRPWYGPRP the “shrunken log2 fold change” value was -1.24.

RRIRDRPPRLPRPRPRPMANPRP was tested, and the “shrunken log2 fold change” value was -0.0338.

In the case of RRIRARPPRLPRPRPRPNWAPRP, the “shrunken log2 fold change” value is reported as 0.27.

With RRIRQRPPRLPRPRPRPQYNPRP the “shrunken log2 fold change” value was -1.1.

In the case of RRIRRRPPRLPRPRPRPGCKPRP, the “shrunken log2 fold change” value is reported as 0.12.

RRIRNRPPRLPRPRPRPTRQPRP was tested, and the “shrunken log2 fold change” value was 0.196.

From the supplement of paper PMC9112550, “Optimization of the antimicrobial peptide Bac7 by deep mutational scanning” (BMC Biology, 2022)
